Assay results: PMC5923107 (2018)

B1: TRL848 (antibody, V domains shown)
VH: QVQLLESGGDVVQPGTSLRLSCAASGFSLWTSGMHWVRQAPGKGLEWVAVMSYDETKKYYADSVRGRFSISRDNSRNTLYLQMNSLRVEDTAVYFCAKPRLDYLDYFHAADSWGQGTLVSVSS
VL: DIVLTQPPSVSVAPGQTATITCGGNYIGSKSVNWYQQRPGHAPVLVVYDDSDRPSGIPDRFSGSNSRSTATTATLTISRVEAGDEADYYCQVWETSEDLWVFGGGTKLTVL
B2: TRL854 (antibody, V domains shown)
VH: QVQLVESGAEVKKPGASVRVSCKGSGYTFTAYHMHWVRQAPGQGFEWVGWINPNSGATYYTSTFEGRVTMTRDTSITTAYMELSSLRSDDTAVYYCATDIVVERDASLGGFNSYGMDVWGQGTTVTVSS
VL: DIEMTQSPLSLPVTPGEPASISCRSSQSLLHSNGYNHLAWYLQKPGRSPHLLIYLASTRASGVPDRFSGSGSGTDFTLKISRVEAEDVGIYYCMQSLQTSITFGQGTRLEIK
B3: TRL847 (antibody, V domains shown)
VH: QVQLVESGGGLVQPGGSLRLSCVASGFTFSRFSMNWVRQAPGMGLEWVSYISDTGRTIYYADSVKGRFTISRDNDKNTLYLQMKSLRDEDSAFYYCARDPDTPFVRAFDSWGQGVLVTVSS
VL: DIVMTQSPSFLSASVGDRVTITCRTSQVISSYLAWYQQRPGKAPKLLIYAASTLQSGVPSRFSGSGSGTRFSLTISNLQPEDFATYFCQQLTTYPPITFGQGTRLEIK

The binders below were run against biotinylated HA antigen of B/Florida/04/2006 (influenza B virus B/Florida/04/2006, biotin (site not stated)) (assay: BLI).

| Binder | Kd |
| --- | --- |
| B1 | 1.7 nM |
| B2 | 8.8 nM |
| B3 | 0.7 nM |
